Numbering of substitutions follows the chain as printed. Names may count otherwise. Like-named read-outs stand apart in the source and are kept apart here.
Key:
[1] = biological target: CD25-hIgG1Fc(人CD25胞外域的C端融合人IgG1的Fc段) (human) (UniProt P01589); assay: ELISA, coated CD25-hIgG1Fc 1 μg/mL
[2] = biological target: T1, 人CD25 (on CD25-positive cells: SU-DHL-1, U937, NK-92, human PBMC) (human, UniProt P01589 22-272); assay: flow cytometry on SU-DHL-1 and U937 cells, Figure 8
T1 construct: whole, on cells; Endogenous CD25 on human cells; also called IL-2Rα
T1 sequence (looked up): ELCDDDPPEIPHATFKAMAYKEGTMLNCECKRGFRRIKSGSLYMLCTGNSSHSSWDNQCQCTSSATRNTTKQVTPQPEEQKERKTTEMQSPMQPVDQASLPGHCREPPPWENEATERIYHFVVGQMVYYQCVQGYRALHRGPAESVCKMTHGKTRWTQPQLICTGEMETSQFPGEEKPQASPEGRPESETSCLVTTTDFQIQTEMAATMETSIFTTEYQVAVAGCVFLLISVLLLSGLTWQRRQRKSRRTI

[3] = biological target: T2, CD25-His(人CD25胞外域的C端融合6×His标签) (human, UniProt P01589 22-240); assay: SPR (Biacore) binding kinetics, Figure 6
T2 construct: extracellular domain; Made in-house; also called 人CD25-His
T2 sequence: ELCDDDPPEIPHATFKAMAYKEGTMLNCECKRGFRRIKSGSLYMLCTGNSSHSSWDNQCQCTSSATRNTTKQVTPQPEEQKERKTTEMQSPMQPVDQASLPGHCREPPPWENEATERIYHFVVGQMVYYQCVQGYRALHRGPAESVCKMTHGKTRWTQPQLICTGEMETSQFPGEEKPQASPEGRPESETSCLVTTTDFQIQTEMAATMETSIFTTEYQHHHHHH

鼠CD25(R&D公司) = biological target: T3, 鼠CD25(R&D公司) (鼠 (mouse), UniProt P01590 22-236, limits assumed); assay: ELISA, coated mouse CD25 50 ng/well, hybridoma supernatant
T3 construct: Bought protein
T3 sequence (looked up): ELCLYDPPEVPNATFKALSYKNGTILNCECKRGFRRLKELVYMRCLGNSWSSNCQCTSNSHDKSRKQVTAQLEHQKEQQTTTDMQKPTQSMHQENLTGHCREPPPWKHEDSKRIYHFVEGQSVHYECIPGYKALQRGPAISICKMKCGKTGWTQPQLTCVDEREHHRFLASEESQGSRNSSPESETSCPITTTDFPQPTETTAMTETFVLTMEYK

[4] = biological target: T2, CD25-His(人CD25胞外域的C端融合6×His标签); assay: SPR (Biacore)
[5] = biological target: T2, CD25-His(人CD25胞外域的C端融合6×His标签); assay: SPR (Biacore); remark: listed apart in the source

Q: Which OD450 [1] does the source give for 小鼠IgG (antibody) here?
A: The OD450 was less than 0.3 OD.

B1: 重组单克隆抗体7B7 (antibody, V domains shown)
VH: EVQLQESGPGLVKPSQSLSLTCTVTGYSITSDYAWNWIRQFPGNKLEWMGYINYSGSTSYNPSLKSRISITRDTSKNQFFLQLNSVTTEDTATYYCARKGGFFDVWGAGTTVTVSS
VL: DIQMTQTTSSLSASLGDRVTISCSASQGISNYLNWYQQKPDGTVKLLIYYTSSLHSGVPSRFSGSGSGTDYSLTISNLEPEDIATYYCLQYSKLPWTFGGGTKLEIK
notes: a human-mouse chimeric IgG1κ form was also made; also called 抗体7B7(来自B7)
Q: Does B1 bind [2]?
A: Result: binds

Q: Does B1 bind [3]?
A: Result: binds

B2: 杂交瘤抗体B7 (antibody, IgG1, V domains shown)
VH: B1 VH
VL: B1 VL
notes: Mouse hybridoma antibody, mIgG1; the tie to the hybridoma antibody rests on that statement
Q: Does B2 bind (鼠CD25(R&D公司))?
A: Result: no binding

B3: 重组单克隆抗体F10-2 (antibody, V domains shown)
VH: QVQLKQSGPGLVQPSQSLSITCTVSGFSLTSYGVHWVRQSPGKGLEWLGVIWRGGSTDYNAAFMSRLSITKDNSKSQVFFKMNSLQAGDTAVYYCAKNERFYGFDYWGQGTTLTVSS
VL: DIVMTQAAFSNPVTLGTSASISCRSSKSLLHSNGITYLYWYLQKPGQSPQLLIYQMSNLASGVPDRFSSSGSGTDFTLRISRVEAEDVGVYYCAQNLELPTFGSGTKLEIK
notes: a human-mouse chimeric IgG1κ form was also made; also called 抗体F10-2(来自F10)
Q: What does the source list for B3?
A: binding result [2]: binds; binding result [3]: binds

B4: hF10-2-3(BM4+BM3) (antibody, V domains shown)
VH: QVQLKQSGPGLVKPSDTLSLTCTVSGFSLTSYGVHWVRQPPGKGLEWLGVIWRGGSTDYNAAFMSRLSITKDNSKSQVSLKLSSVTAADTAVYYCAKNERFYGFDYWGQGTLVTVSS
VL: B3 VL with A7S, A8P, F9L, N11L, L15P, T17E, S18P, S104G, L108V
notes: Made as for h7B7 (human IgG1κ)
Q: Which Kd [4] does the source give for B4 here?
A: The Kd was 10.5 nM.

Q: And the koff [4]?
A: Its koff is 0.00333 s⁻¹.

Q: What about the kon [4] of the same molecule?
A: Its kon is 318000 M⁻¹ s⁻¹.

B5: 杂交瘤抗体F10 (antibody, IgG2a, V domains shown)
VH: B3 VH
VL: B3 VL
notes: Mouse hybridoma antibody, mIgG2a; the tie to the hybridoma antibody rests on that statement
Q: Does B5 bind (鼠CD25(R&D公司))?
A: Result: no binding

B6: hF10-2-1(BM4+BM) (antibody, V domains shown)
VH: B4 VH
VL: B3 VL with A7S, A8P, F9L, N11L, L15P, T17E, S18P, R79K, S104G, L108V
notes: as for B4
Q: Does B6 bind [4]?
A: Result: no binding

B7: hF10-2-4(BM5+BM3) (antibody, V domains shown)
VH: B4 VH with Q6E, V37I, L48I
VL: B3 VL with A7S, A8P, F9L, N11L, L15P, T17E, S18P, S104G, L108V
notes: as for B4
Q: B7 was tested. Which Kd [4] did it give?
A: The Kd was 18.1 nM.

Q: What about the koff [4] of the same molecule?
A: The koff was 0.00126 s⁻¹.

Q: And the kon [4]?
A: The kon was 69900 M⁻¹ s⁻¹.

B8: hF10-2-2(BM5+BM) (antibody, V domains shown)
VH: B4 VH with Q6E, V37I, L48I
VL: B3 VL with A7S, A8P, F9L, N11L, L15P, T17E, S18P, R79K, S104G, L108V
notes: as for B4
Q: Does B8 bind [4]?
A: Result: no binding

B9: 人源化抗体h7B7-15 (antibody, V domains shown)
VH: QVQLQESGPGLVKPSQTLSLTCAVYGYSITSDYAWNWIRQPPGKGLEWIGYINYSGSTSYNPSLKSRVTISVDTSKNQFSLKLSSVTAADTAVYYCARKGGFFDVWGQGTTVTVSS
VL: DIQMTQSPSSLSASVGDRVTITCSASQGISNYLNWYQQKPGKAPKLLIYYTSSLHSGVPSRFSGSGSGTDFTFTISSLQPEDIATYYCLQYSKLPWTFGGGTKVEIK
notes: Human IgG1κ; heavy chain 4 (IGHV4-34*09) with light chain 3 (IGKV1-33*01)
Q: Which Kd [5] does the source give for B9 here?
A: The Kd was 2.33 nM.

Q: What about the koff [5] of the same molecule?
A: The koff was 0.000356 s⁻¹.

Q: And the kon [5]?
A: Its kon is 153000 M⁻¹ s⁻¹.

B10: h7B7-15S (antibody, V domains shown)
VH: B9 VH with N53S
VL: B9 VL
notes: N53S mutant of h7B7-15; human IgG1κ as the parent; also called h7B7突变体 N53S
Q: Which results are given for B10?
A: Kd [5]: 4.83 nM; koff [5]: 0.000554 s⁻¹; kon [5]: 115000 M⁻¹ s⁻¹

B11: h7B7-15Y (antibody, V domains shown)
VH: B9 VH with N53Y
VL: B9 VL
notes: Mutant of h7B7-15 in the N of the NYS motif of VH-CDR2; human IgG1κ as the parent; also called h7B7突变体 N53Y
Q: Does B11 bind [5]?
A: Result: no binding

B12: h7B7-15A (antibody, V domains shown)
VH: B9 VH with N53A
VL: B9 VL
notes: Mutant of h7B7-15 in the N of the NYS motif of VH-CDR2; human IgG1κ as the parent; also called h7B7突变体 N53A
Q: Which Kd [5] does the source give for B12 here?
A: The Kd was 8.55 nM.

Q: What about the koff [5] of the same molecule?
A: Its koff is 0.00103 s⁻¹.

Q: And the kon [5]?
A: The kon was 121000 M⁻¹ s⁻¹.

B13: h7B7-15Q (antibody, V domains shown)
VH: B9 VH with N53Q
VL: B9 VL
notes: Mutant of h7B7-15 in the N of the NYS motif of VH-CDR2; human IgG1κ as the parent; also called h7B7突变体 N53Q
Q: What does the source list for B13?
A: Kd [5]: 21.1 nM; koff [5]: 0.00502 s⁻¹; kon [5]: 238000 M⁻¹ s⁻¹

From patent CN115197321A (UNIV SICHUAN, dated 2022)
